Data reported in US20090291899A1 (published 2009).
Where no end group is shown, it is not given here.

Target: T1, recombinant human soluble TNF receptor inhibitor/Fc chimera (rHusTNFRI) (human, UniProt P19438 30-211)
T1 construct: Bought from Prospec-Tany TechnoGene; Only the soluble part stood in the assay; also called TNF-R1; immobilised rHusTNFRI; not shown: Fc part of human IgG1; 6x histidine tag on the Fc part
T1 sequence: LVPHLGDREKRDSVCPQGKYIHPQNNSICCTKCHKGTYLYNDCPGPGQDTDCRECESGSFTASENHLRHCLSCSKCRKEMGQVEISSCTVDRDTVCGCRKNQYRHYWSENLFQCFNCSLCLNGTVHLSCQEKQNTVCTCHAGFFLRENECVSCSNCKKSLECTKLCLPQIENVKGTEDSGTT
Test: solid-phase competition ELISA: unlabelled TNF70-80 against 10 µM biotinylated TNF70-80 on immobilised rHusTNFRI

B1: TNF70-80 (Pro-Ser-Thr-His-Val-Leu-Ile-Thr-His-Thr-Ile-OH) (peptide)
peptide: PSTHVLITHTI-OH
notes: 4; also called Peptide A; TNF mimetic peptide
- IC50: ~21 µM
- Kd: 90 µM
